# Measured values reported in US20040258656, “High affinity TGFbeta nucleic acid ligands and inhibitors” (published 2004).
# T1: TGFβ2 (transforming growth factor beta 2) (Homo sapiens, UniProt P61812 SEQ:1-112)
# T1 sequence: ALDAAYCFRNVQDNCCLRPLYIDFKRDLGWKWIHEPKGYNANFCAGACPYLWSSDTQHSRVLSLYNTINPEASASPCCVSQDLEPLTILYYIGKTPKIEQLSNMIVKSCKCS
# Columns and labels:
# [1] = biological target: TGFβ1 (transforming growth factor beta 1) (Homo sapiens, UniProt P01137 SEQ:1-112)
# [2] = biological target: T1, TGFβ2 (transforming growth factor beta …); experiment: filter; 37C; Ki 10 nM in cell assay; conditions: chain copies: 2 (inferred, homodimer)
# Method: (§1) The binding activity of individual ligands was determined by measuring the equilibrium dissociation constants using nitrocellulose partitioning of labeled RNA as a function of protein concentration. RNA was body-labeled or guanylated and then 5′-end labeled with γ-³²P ATP and T4 polynucleotide kinase. Binding reactions were set at various protein concentrations (typically varied in either 3-fold or 10-fold increments) while maintaining the labeled RNA concentration constant at less than 0.1 nM, and incubated at 37° C. for 10 minutes. Protein-RNA complexes were partitioned away from uncomplexed RNA, by filtering the binding reactions through a nitrocellulose/cellulose acetated mixed matrix (0.45 μm pore size filter disks, type HA; Millipore, Co., Bedford, Mass.). For filtration, the filters were placed onto a vacuum manifold (12-well, Millipore, or 96-well BRL) and wetted by aspirating 1-5 ml of binding buffer. The binding reactions were aspirated through the filters, washed with 1-5 ml of binding buffer and counted in a scintillation counter (Beckmann).
# [3] = biological target: T1, TGFβ2 (transforming growth factor beta …); experiment: cell_activity; mink lung epithelial cell proliferation; conditions: chain copies: 2 (homodimer, stated)
# Method: (§2) The bioactivity of TGFβ2 nucleic acid ligands was measured with mink lung epithelial cells. Proliferation of these cells is inhibited by TGFβ2. Human TGFβ2 was titrated on the cells and ³H-thymidine incorporation was measured. […] This inhibitory amount of TGFβ2 along with varying amounts of nucleic acid ligand (typically 0.3 or 1 nM to 1 or 3 μM, in 3 fold increments) was used. Typically, cells were plated at 10E5/ml in 96-well plates in 100 μl MEM, 10 mM HEPES pH 7.4, 0.2% FBS. […] After incubation, the cells were lysed with 1% Triton X-100 and harvested onto GF/B filter plates in a Packard 96 well plate harvester, and ³H-thymidine incorporation in cellular DNA was quantitated by scintillation counting in MicroScint (Packard, Mariden, Conn.) in a Packard Top-Count. Data were plotted as % of maximum ³H-thymidine incorporation vs RNA concentration, and were fitted by the software Kaleidagraph (Synergy Software, Reading, Pa.) to the equation m3*(m0+m1+(m2)−((m0+m1+(m2))*(m0+m1+(m2))−4*(m0)*( m2)))\hat{ }0.5)/(2*(m2)); where m0 is the concentration of competitor RNA; m1 is the IC50, m2 is the concentration of TGFβ2, and m3 is the plateau value of the fraction of maximum ³H-thymidine incorporation. […]
# [4] = biological target: T1, TGFβ2 (transforming growth factor beta …); experiment: filter; Table 18 footnote states ~1 nM; Ki ~10 nM; conditions: chain copies: 2 (inferred, homodimer)
# [5] = biological target: T1, TGFβ2 (transforming growth factor beta …); experiment: filter; 37C; Ki 30 nM in cell assay; conditions: chain copies: 2 (inferred, homodimer)
# Method: as §1
# [6] = biological target: T1, TGFβ2 (transforming growth factor beta …); experiment: cell_activity; mink lung epithelial cell proliferation; conditions: chain copies: 2 (inferred, homodimer)
# Method: The bioactivity of TGFβ2 nucleic acid ligands was measured with mink lung epithelial cells. Proliferation of these cells is inhibited by TGFβ2. Human TGFβ2 was titrated on the cells and ³H-thymidine incorporation was measured. […] This inhibitory amount of TGFβ2 along with varying amounts of nucleic acid ligand (typically 0.3 or 1 nM to 1 or 3 μM, in 3 fold increments) was used. Typically, cells were plated at 10E5/ml in 96-well plates in 100 μl MEM, 10 mM HEPES pH 7.4, 0.2% FBS. […] After incubation, the cells were lysed with 1% Triton X-100 and harvested onto GF/B filter plates in a Packard 96 well plate harvester, and ³H-thymidine incorporation in cellular DNA was quantitated by scintillation counting in MicroScint (Packard, Mariden, Conn.) in a Packard Top-Count. Data were plotted as % of maximum ³H-thymidine incorporation vs RNA concentration, and were fitted by the software Kaleidagraph (Synergy Software, Reading, Pa.) to the equation m3*(m0+m1+(m2)−((m0+m1+(m2))*(m0+m1+(m2))−4*(m0)*( m2)))\hat{ }0.5)/(2*(m2)); where m0 is the concentration of competitor RNA; m1 is the IC50, m2 is the concentration of TGFβ2, and m3 is the plateau value of the fraction of maximum ³H-thymidine incorporation.
# [7] = biological target: T1, TGFβ2 (transforming growth factor beta …); experiment: filter; conditions: chain copies: 2 (inferred, homodimer)
# [8] = biological target: T1, TGFβ2 (transforming growth factor beta …); experiment: filter; 37C; Ki 230 nM in cell assay; conditions: chain copies: 2 (inferred, homodimer)
# Method: as §1
# [9] = biological target: T1, TGFβ2 (transforming growth factor beta …); experiment: cell_activity; mink lung epithelial cell proliferation; text p154 about 200 nM; conditions: chain copies: 2 (homodimer, stated)
# Method: as §2
# Chain of TGFβ1 (transforming growth factor beta 1) (P01137 279-390): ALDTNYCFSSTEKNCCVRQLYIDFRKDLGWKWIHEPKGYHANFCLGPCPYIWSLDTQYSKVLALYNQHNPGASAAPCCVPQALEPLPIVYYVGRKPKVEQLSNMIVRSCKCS
binder,measurement,setting,value
"GGGUGCCUUUUGCCUAGGUUGUGAUUUGUAACCUUCUGCCCA (ssRNA, 2'-OMe purines at 21, 23-24, 28 and 30) [ChD70-m13]",binding result,[1],binds
"21a-21 (ssRNA, 2'-F C and U) RNA: GGGAGGACGAUGCGGUUCAGGAGGUUAUUACAGAGUCUGUAUAGCUGUACUCCCCAGACGACUCGCCCGA",Kd,[2],~1 nM
"21a-21 (ssRNA, 2'-F C and U; 2'-OH A and G) RNA: GGGAGGACGAUGCGGUUCAGGAGGUUAUUACAGAGUCUGUAUAGCUGUACUCCCCAGACGACUCGCCCGA",Ki,[3],10 nM
"GGAGGUUAUUACAGAGUCUGUAUAGCUGUACUCC (ssRNA, 2'-F C and U; 3'-3' dT cap) [NX22284]",Kd,[4],~2 nM
"21a-4 (ssRNA, 2'-F C and U) RNA: GGGAGGACGAUGCGGCGUUGUUUAGUCGUAUGUAUAUACUAAGUCCGCUUGUCCCCAGACGACUCGCCCGA",Kd,[5],~3 nM
"21a-4 (ssRNA, 2'-F C and U; 2'-OH A and G) RNA: GGGAGGACGAUGCGGCGUUGUUUAGUCGUAUGUAUAUACUAAGUCCGCUUGUCCCCAGACGACUCGCCCGA",Ki,[3],30 nM
"GGAGGUUAUUACAGAGUCUGUAUAGCUGUACUCCCC (ssRNA, 2'-F C and U; 3'-3' dT cap) [NX22283]",Ki,[6],10 nM
same,binding signal,[7],0.6 x Kd of NX22284
"14i-1 (ssRNA, 2'-F C and U) RNA: GGGAGGACGAUGCGGAAGUAACGUUGUAGUAAAAUUCGUUCUCUCGGCAUUUGGCCAGACGACUCGCCCGA",Kd,[8],~10 nM
"14i-1 (ssRNA, 2'-F C and U; 2'-OH A and G) RNA: GGGAGGACGAUGCGGAAGUAACGUUGUAGUAAAAUUCGUUCUCUCGGCAUUUGGCCAGACGACUCGCCCGA",Ki,[9],230 nM
